Laboratory results reported in patent US20200317768A1 (published 2020).

T1: cynomolgus monkey FcγRIIa1 extracellular domain, C-terminal His-tag (cynomolgus monkey)
T1 construct: also called cyno FcγRIIa1; cynoFcgRIIa1
T1 chain: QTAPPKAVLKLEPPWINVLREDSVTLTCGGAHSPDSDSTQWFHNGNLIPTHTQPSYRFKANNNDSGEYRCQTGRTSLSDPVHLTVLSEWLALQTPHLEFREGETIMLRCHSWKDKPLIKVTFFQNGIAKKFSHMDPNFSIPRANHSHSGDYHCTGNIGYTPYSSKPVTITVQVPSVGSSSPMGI

T2: cynomolgus monkey FcγRIIa2 extracellular domain, C-terminal His-tag (cynomolgus monkey)
T2 construct: also called cyno FcγRIIa2; cynoFcgRIIa2
T2 chain: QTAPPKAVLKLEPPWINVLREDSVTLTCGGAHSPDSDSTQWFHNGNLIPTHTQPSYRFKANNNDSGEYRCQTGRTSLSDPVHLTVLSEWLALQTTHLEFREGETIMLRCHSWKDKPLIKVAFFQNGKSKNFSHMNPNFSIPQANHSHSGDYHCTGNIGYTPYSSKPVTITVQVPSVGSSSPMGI

T3: cynomolgus monkey FcγRIIa3 extracellular domain, C-terminal His-tag (cynomolgus monkey)
T3 construct: also called cyno FcγRIIa3; cynoFcgRIIa3
T3 chain: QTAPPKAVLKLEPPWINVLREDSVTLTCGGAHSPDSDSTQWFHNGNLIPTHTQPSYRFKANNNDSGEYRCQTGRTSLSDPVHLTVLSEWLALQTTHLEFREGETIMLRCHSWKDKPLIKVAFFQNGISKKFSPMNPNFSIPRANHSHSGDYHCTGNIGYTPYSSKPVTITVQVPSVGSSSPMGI

T4: cynomolgus monkey FcγRIIb extracellular domain, C-terminal His-tag (cynomolgus monkey)
T4 construct: also called cyno FcγRIIb; cynoFcγRIIb
T4 chain: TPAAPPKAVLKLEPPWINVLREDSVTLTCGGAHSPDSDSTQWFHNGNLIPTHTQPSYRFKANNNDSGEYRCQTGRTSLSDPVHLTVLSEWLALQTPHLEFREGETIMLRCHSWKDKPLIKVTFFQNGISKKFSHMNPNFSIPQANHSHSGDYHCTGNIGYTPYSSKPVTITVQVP

T5: human FcγRIIaH extracellular domain, C-terminal His-tag (human, UniProt P12318 34-217)
T5 construct: also called human FcγRIIa (type H); FcgRIIaH
T5 sequence: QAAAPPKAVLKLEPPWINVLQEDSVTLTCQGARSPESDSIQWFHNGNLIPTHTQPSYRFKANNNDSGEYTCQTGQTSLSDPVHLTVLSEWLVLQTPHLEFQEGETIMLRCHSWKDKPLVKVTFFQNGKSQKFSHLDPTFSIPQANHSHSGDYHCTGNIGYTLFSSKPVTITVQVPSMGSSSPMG

T6: human FcγRIIaR extracellular domain, C-terminal His-tag (human, UniProt P12318 34-217)
T6 construct: also called human FcγRIIa (type R); FcgRIIaR
T6 chain: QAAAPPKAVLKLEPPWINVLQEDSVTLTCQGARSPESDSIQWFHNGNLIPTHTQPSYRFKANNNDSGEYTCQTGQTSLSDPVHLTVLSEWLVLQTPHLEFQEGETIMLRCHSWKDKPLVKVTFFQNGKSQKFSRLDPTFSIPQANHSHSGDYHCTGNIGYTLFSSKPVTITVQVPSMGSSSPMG

T7: human FcγRIIb extracellular domain, C-terminal His-tag (human, UniProt P31994 43-217)
T7 construct: also called human FcgRIIb; FcgRIIb
T7 sequence: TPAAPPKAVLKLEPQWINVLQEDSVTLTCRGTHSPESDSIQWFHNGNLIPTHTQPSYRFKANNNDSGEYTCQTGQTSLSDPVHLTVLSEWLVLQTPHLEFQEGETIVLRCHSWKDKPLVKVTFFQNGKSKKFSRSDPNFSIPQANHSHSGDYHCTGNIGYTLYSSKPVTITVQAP


Assays:
Assay in all cases: SPR (Biacore); KD of SG1 / KD of variant;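 further: relative to parent M103205H795-SG1 carrying the SG1 human heavy chain constant region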
[1] = target: T1, cynomolgus monkey FcγRIIa1 …
[2] = target: T2, cynomolgus monkey FcγRIIa2 …
[3] = target: T3, cynomolgus monkey FcγRIIa3 …
[4] = target: T4, cynomolgus monkey FcγRIIb extracellular …
[5] = target: T5, human FcγRIIaH extracellular domain, …
[6] = target: T6, human FcγRIIaR extracellular domain, …
[7] = target: T7, human FcγRIIb extracellular domain, …

| KD fold (SG1 = 1) [1] [fold] | KD fold (SG1 = 1) [2] [fold] | KD fold (SG1 = 1) [3] [fold] | KD fold (SG1 = 1) [4] [fold] | KD fold (SG1 = 1) [5] [fold] | KD fold (SG1 = 1) [6] [fold] | KD fold (SG1 = 1) [7] [fold] | Binder |
| --- | --- | --- | --- | --- | --- | --- | --- |
| 1.2 | 1.6 | 1.7 | 1.8 | 0.8 | 1.1 | 7.7 | M103205H795-MY117/M103202L889-SK1 (antibody, human IgG1, kappa, Substitutions introduced into M103205H795-SG1; expressed with M103202L889-SK1 as light chain) heavy: QVTLKESGPVLVKPTETLTLTCTVSGIDLSHDDISWVRQAPGKGLEWVGIISYAGSTYYASWAKGRLTISKDTSKNQVVLTMTNMDPVDTATYYCARGVPAYSHGGDLWGQGTLVTVSSASTKGPSVFPLAPSSKSTSGGTAALGCLVKDYFPEPVTVSWNSGALTSGVHTFPAVLQSSGLYSLSSVVTVPSSSLGTQTYICNVNHKPSNTKVDKKVEPKSCDKTHTCPPCPAPEWLNGPSVFLFPPKPKDTLMISRTPEVTCVVVDVAEEDPEVKFNWYVDGVEVHNAKTKPREEQYNSTYRVVSVLTVLHQDWLNGKEYKCKVSNKALPAPIEKTISKAKGQPREPQVYTLPPSREEMTKNQVSLTCLVKGFYPSDIAVEWESNGQPENNYKTTPMVLDSDGSFFLYSKLTVDKSRWQQGNVFSCSVMHEALHNHYTQKSLSLSP light: DIVMTQSPATLSLSPGERATLSCTSSQSVYHANWLSWFQQKPGQPPKLLIYWASTLAYGVPSRFSGSGSGTDFTLTISSLQPEDAATYYCAGGYGGGRYAFGQGTKVEIKRTVAAPSVFIFPPSDEQLKSGTASVVCLLNNFYPREAKVQWKVDNALQSGNSQESVTEQDSKDSTYSLSSTLTLSKADYEKHKVYACEVTHQGLSSPVTKSFNRGEC |
| 5.5 | 9.1 | 12.1 | 10.6 | 1.9 | 1.5 | 11.8 | M103205H795-MY197/M103202L889-SK1 (antibody, human IgG1, kappa, Substitutions introduced into M103205H795-SG1; expressed with M103202L889-SK1 as light chain) heavy: QVTLKESGPVLVKPTETLTLTCTVSGIDLSHDDISWVRQAPGKGLEWVGIISYAGSTYYASWAKGRLTISKDTSKNQVVLTMTNMDPVDTATYYCARGVPAYSHGGDLWGQGTLVTVSSASTKGPSVFPLAPSSKSTSGGTAALGCLVKDYFPEPVTVSWNSGALTSGVHTFPAVLQSSGLYSLSSVVTVPSSSLGTQTYICNVNHKPSNTKVDKKVEPKSCDKTHTCPPCPAPELLNGPSVFLFPPKPKDTLMISRTPEVTCVVVDVSDEDPEVKFNWYVDGVEVHNAKTKPREEQYNSTYRVVSVLTVLHQDWLNGKEYKCKVSNKALPKPIEKTISKAKGQPREPQVYTLPPSREEMTKNQVSLTCLVKGFYPSDIAVEWESNGQPENNYKTTPMVLDSDGSFFLYSKLTVDKSRWQQGNVFSCSVMHEALHNHYTQKSLSLSP light: DIVMTQSPATLSLSPGERATLSCTSSQSVYHANWLSWFQQKPGQPPKLLIYWASTLAYGVPSRFSGSGSGTDFTLTISSLQPEDAATYYCAGGYGGGRYAFGQGTKVEIKRTVAAPSVFIFPPSDEQLKSGTASVVCLLNNFYPREAKVQWKVDNALQSGNSQESVTEQDSKDSTYSLSSTLTLSKADYEKHKVYACEVTHQGLSSPVTKSFNRGEC |
| 1.5 | 1.8 | 0.9 | 1 | 0.8 | 0.7 | 4.2 | M103205H795-MY141/M103202L889-SK1 (antibody, human IgG1, kappa, Substitutions introduced into M103205H795-SG1; expressed with M103202L889-SK1 as light chain) heavy: QVTLKESGPVLVKPTETLTLTCTVSGIDLSHDDISWVRQAPGKGLEWVGIISYAGSTYYASWAKGRLTISKDTSKNQVVLTMTNMDPVDTATYYCARGVPAYSHGGDLWGQGTLVTVSSASTKGPSVFPLAPSSKSTSGGTAALGCLVKDYFPEPVTVSWNSGALTSGVHTFPAVLQSSGLYSLSSVVTVPSSSLGTQTYICNVNHKPSNTKVDKKVEPKSCDKTHTCPPCPAPELLNGPSVFLFPPKPKDTLMISRTPEVTCVVVDVAHEDPEVKFNWYVDGVEVHNAKTKPREEQYNSTYRVVSVLTVLHQDWLNGKEYKCKVSNKALPAPIEKTISKAKGQPREPQVYTLPPSREEMTKNQVSLTCLVKGFYPSDIAVEWESNGQPENNYKTTPMVLDSDGSFFLYSKLTVDKSRWQQGNVFSCSVMHEALHNHYTQKSLSLSP light: DIVMTQSPATLSLSPGERATLSCTSSQSVYHANWLSWFQQKPGQPPKLLIYWASTLAYGVPSRFSGSGSGTDFTLTISSLQPEDAATYYCAGGYGGGRYAFGQGTKVEIKRTVAAPSVFIFPPSDEQLKSGTASVVCLLNNFYPREAKVQWKVDNALQSGNSQESVTEQDSKDSTYSLSSTLTLSKADYEKHKVYACEVTHQGLSSPVTKSFNRGEC |
| 1.5 | 2.3 | 2.6 | 3.9 | 0.6 | 1 | 5.5 | M103205H795-MY147/M103202L889-SK1 (antibody, human IgG1, kappa, Substitutions introduced into M103205H795-SG1; expressed with M103202L889-SK1 as light chain) heavy: QVTLKESGPVLVKPTETLTLTCTVSGIDLSHDDISWVRQAPGKGLEWVGIISYAGSTYYASWAKGRLTISKDTSKNQVVLTMTNMDPVDTATYYCARGVPAYSHGGDLWGQGTLVTVSSASTKGPSVFPLAPSSKSTSGGTAALGCLVKDYFPEPVTVSWNSGALTSGVHTFPAVLQSSGLYSLSSVVTVPSSSLGTQTYICNVNHKPSNTKVDKKVEPKSCDKTHTCPPCPAPELWNGPSVFLFPPKPKDTLMISRTPEVTCVVVDVSEEDPEVKFNWYVDGVEVHNAKTKPREEQYNSTYRVVSVLTVLHQDWLNGKEYKCKVSNKALPAPIEKTISKAKGQPREPQVYTLPPSREEMTKNQVSLTCLVKGFYPSDIAVEWESNGQPENNYKTTPMVLDSDGSFFLYSKLTVDKSRWQQGNVFSCSVMHEALHNHYTQKSLSLSP light: DIVMTQSPATLSLSPGERATLSCTSSQSVYHANWLSWFQQKPGQPPKLLIYWASTLAYGVPSRFSGSGSGTDFTLTISSLQPEDAATYYCAGGYGGGRYAFGQGTKVEIKRTVAAPSVFIFPPSDEQLKSGTASVVCLLNNFYPREAKVQWKVDNALQSGNSQESVTEQDSKDSTYSLSSTLTLSKADYEKHKVYACEVTHQGLSSPVTKSFNRGEC |
